In this experiment the target is mitochondrial electron transport chain complex III2 (UniProt P22695). Kind of experiment: BN-PAGE immunoblot (Ndufb8), band quantification. The settings on record: A549 cells transfected with Ndufs1 plasmid; respirasome band CIn+CIIIn+CIVn normalised to free CI band; n = 3, mean ± SD; parent: est. 0.04; read off a plot.
Sequence of UniProt P22695 (P22695 whole entry, looked up, one chain of several): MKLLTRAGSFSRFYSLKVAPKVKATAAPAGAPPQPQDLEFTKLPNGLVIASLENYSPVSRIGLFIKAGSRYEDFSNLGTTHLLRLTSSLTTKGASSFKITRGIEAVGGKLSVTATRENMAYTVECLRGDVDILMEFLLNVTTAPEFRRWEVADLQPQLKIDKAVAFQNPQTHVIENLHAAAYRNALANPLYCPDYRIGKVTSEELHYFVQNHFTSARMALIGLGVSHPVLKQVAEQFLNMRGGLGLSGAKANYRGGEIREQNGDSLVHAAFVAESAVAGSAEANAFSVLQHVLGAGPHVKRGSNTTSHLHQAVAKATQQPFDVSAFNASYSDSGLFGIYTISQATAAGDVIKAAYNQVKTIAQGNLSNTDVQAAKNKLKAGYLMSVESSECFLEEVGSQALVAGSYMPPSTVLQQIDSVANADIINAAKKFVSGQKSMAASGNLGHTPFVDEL
Take “mitochondrial electron transport chain complex I with wild-type Ndufs1 (from UniProt P28331;O95169) C64D”: the other: Relative Respirasome level (vs CI) stood at 1.9.

Turning to “mitochondrial electron transport chain complex I with wild-type Ndufs1 (from UniProt P28331;O95169) C75D”, the other: Relative Respirasome level (vs CI) worked out at 1.9.

For “mitochondrial electron transport chain complex I with wild-type Ndufs1 (from UniProt P28331;O95169) C78D”, the other: Relative Respirasome level (vs CI) was 1.4.

Consider “mitochondrial electron transport chain complex I with wild-type Ndufs1 (from UniProt P28331;O95169) C92D”, for which the other: Relative Respirasome level (vs CI) is 1.5.

For “mitochondrial electron transport chain complex I with wild-type Ndufs1 (from UniProt P28331;O95169) C367D”, the other: Relative Respirasome level (vs CI) was 0.15.

Regarding “mitochondrial electron transport chain complex I with wild-type Ndufs1 (from UniProt P28331;O95169) C554D”, the other: Relative Respirasome level (vs CI) worked out at 1.1.

For the substance “mitochondrial electron transport chain complex I with wild-type Ndufs1 (from UniProt P28331;O95169) C564D”, the other: Relative Respirasome level (vs CI) was found to be 1.2.

In the case of “mitochondrial electron transport chain complex I with wild-type Ndufs1 (from UniProt P28331;O95169) C727D”, the other: Relative Respirasome level (vs CI) is 1.

For the origin of these results see PMC12409452.
